Laboratory results from the MegaScale stability set (Tsuboyama et al. 2023).

B1: EHEE_rd4_0086 (parent)
chain: EIHIRTNGEEQARKVYKMLAKRNYDVKIEQHNGQWVVTAS
B2: EHEE_rd2_0601 (parent)
chain: TYTYKLTDEEASRRAEDEWRNRGYDVRVRNNNGTWEVEVR

Variants of: B1
Assay: folding stability dG (cDNA display proteolysis); higher = more stable
Conditions: PBS, room temperature

Folding stability dG [kcal/mol] of substitutions, site by site:
H3: G 0.661, D 0.614, E 2, L 2.14, I 2.81, A 1.64, K 2.26, F 2.2, M 2.23
I2: G -0.001, Y 1.65, R 0.978, Q 0.226, A 0.327, E 0.258, K 0.769, P 0.357, V 1.42, T 0.864, W 2.36, M 1.38, L 1.61, N 0.024, S 0.144, D 0.01, F 2.2, H 0.983
E1: Y 2.5, M 2.29, F 2.51, V 2.47, T 2.31, G 1.84, W 2.55, A 2.08, N 1.8, S 2.08, P 1.91, I 2.48, D 1.72, H 2.46, R 2.29, L 2.37, Q 2.17, K 2.3

Variants of: B2
Assay: as above
Conditions: PBS, room temperature

Folding stability dG [kcal/mol] of substitutions, site by site:
W35: L -0.206, I 0.328, P -0.671, T -0.644, V -0.844, Y 0.894, F 0.888, M -0.533, C -0.208
E38: G -0.74, D 0.701, A 0.691, V 1.61, F 1.03, Q 1.2, N 0.56, R 0.772, T 1.71, S 1.23, L 1.28, K 0.392, M 1.33, W 0.84, H 1.02, Y 1.03, I 1.77
V39: I 1.41, C 1.46, H -0.712, A -0.517, R -0.789, F 0.048, Y -0.431, L 0.587, W -0.503, T -0.975, M -0.536
E36: T 1.27
